Data published in paper PMC10739146.

Assays:
[1] = GFP fluorescence microscopy with mRFP-Snc1(pm) marker; conditions: glycan lost; control: wild type Rim21-2GFP
[2] = stepwise centrifugation P13/P100/S100, immunoblot; conditions: glycan lost; control: wild type Rim21-HA
[3] = cycloheximide chase, immunoblot, ± alkali; conditions: glycan lost; control: wild type Rim21
[4] = anti-HA immunoblot of total lysate; conditions: glycan lost; control: wild type Rim21

B1: Rim21: N15Q (protein)
parent chain: MNLWRHSPEELAAYNSCHPMKLGSGVLIQLPLYDNSAVYAEDITFRSFCCERVPVYVSTVLRNSSPYRYLDEVINDWQKFIQVSDYVGGSAEYAIYAVILSITSNFVITVFLTVICCINISGRAYKRILQLLRIASLLASLNLTIFITKVLRRLEKEHNVYGVVRAHSIMHIFSDDMTFVVLDFLATLMFQFCQVGIVIRLFQRAQEKRIIFFIGVILTITANILWVIPPFANHTTKHRNDWQILRPFVYLFRIAIATSYASIVIYHIWQKKKLWFKFNQMGLLTLLTILVVLLLPGFFLADVSNLWISELGEVFNTTCYVTSTVITWEWLDRLNVLERKEEAQSILGRPIFEEEQQDYRFAKYALRVQNALTRRESQDASTDRHDTSSNSEVCDLQTISRYDPEDQISVGRSIDRMHFNDRGTYKDVALKKLGYARDKILYFTDQIVQKSVGHNNSSSSKNEKTKQRKAMVRKRLGLDKPGIYIYSTKDVVFNSDEDDDENAEDEDDDEYEVGSEGNNNSSATFTSDHIGHI
localisation_or_trafficking [1]: no change | localisation_or_trafficking [2]: changes | degradation_or_half_life [3]: increases | expression_or_secretion [4]: increases
